{
  "source": "the DeepSol protein solubility set",
  "data": [
    {"experiment": "soluble on expression in E. coli; label from the status in PepcDB or PDB records", "values": [
      {"sequence": "GPGSMVERTADQRIRTTEWEEVQYKFGNRVGKYATNEVELLAQKIADNNLNAPLKAYDPHEEKVMDKVERGGYDTGRAEEEGGPAFDDALPDDDDEALAAFRRKRLAELQRQKEVERFGVLRHVSGADYMTEVTEASSTNWVVAVLIKPGHDNCEALLSVMRVAAQRHRDVKFLSMVSTEAIKNFPDRHLPCVLLYRDKKLENQLTEVASWKGKQNRLSLESVERVLHRYGVIRNTDYDHDDDDDDA", "soluble on expression in E. coli": "not soluble"},
      {"sequence": "GPGSMWKCYPLRCPAATGVFGCFKRLQDGYSAWCAAVSNQETASAKTSSRGSGAENTENLQLPIHTNPNACPRSVLVVPAGDIKDALRRQKRYDVVADVVMLDLTRGVFGGSDRSGGASEARDRLLRFLRESVRGDHMEGCSDDGEWKTQSGEGTVGQIFNGGRARWVVRVNSPEFDAARGFLDMELVGVLGDLIEGVVLPSVTANTYELVQEFIHPSHKLWAAFNTPLSVLQASAVCAQGHYRYAIVDREELAYEMQYPSVNSEKRSGSLNFSEDVEATQLKHVRSLPALHSACQVMTAAKAHGMYLFDGGFSDVSDSIGFRHDMQRCRAFGFDGRVVLRPSQIAACHEAFVPTSEEVEWAKAVQRTHCMDQYNVNGDNATSVGGDATCRRQRAALILERHAAVQWYNRNPQDDGMDMQRKGAGGNVPQGSVV", "soluble on expression in E. coli": "not soluble"},
      {"sequence": "GPGSMYARYRTRSRFYKRPEKMLKAYNVSPNLLRLPKVKPGLLKGIYTDEKIDLRDRERLELVESIRHPKERDFYQDHTYHNQWIARDLESHQKIQIAGRYPYFSPDYEIKPWIWYPGDTVEVVSGEGAGQRGAIIAVVKYKNEILVQNVNVQDVVIPASETRPEQVVQREHPISVLRVRHVDPSTNQLCHLEIVKVRNKETGELEERRISLESGALLPIPAPEETVEAGDPLKDTAIQDADEETYDREKEMPLLVVRRLQAMENYFVDSLQKSHEYHKALQMRNAQDMQTFQKDVLVRATEKLAAAAAVFGHGAMAEAGSQAASVASESSQAGDAEEDAVKGTITVETVVAEVLKSEQRFRSDAAAPGVPGWWQNMIDAYVSVLEEEEATIEAEAAAQAQAAEADRRAEQLMADATAEVGQSMEEDGTMEGGDEDLDEQDGDLDEDSSRSDRSK", "soluble on expression in E. coli": "not soluble"},
      {"sequence": "GPGSMYCHAGVPSTSPSPTDFSEVHKILCGHIKQGNNFSVAAAVALEPLHGSSEFWRTCGYRSGIVSALLASSLGVQRETDQLSHLEPMTVADVYAMLRHVVDENAHLRQIIARLESGECDPDDGSGGITSSTERLRSLISEGYDALTGRSSPCMGEYDCGQTPGKWKTCSNGAAGTKRRRDSPEVTEWAYVRPESPVPASETLSPAANSGDDTVDEAEQNNALDVLEQLPALPGTTRTVSSFDAVGEMVNRGAGGPSLHPTNPSEFRVGSERGSTIETHSSSEVSNFANVGVGTSSGKQKRYKFSASEDEAIIKGLARFTKGQQRFQQIYYAYRSVWHPARTVSQLYDHWRGTLRYKVIQQQGYRGKNSVAARSPEKASNMENNE", "soluble on expression in E. coli": "not soluble"},
      {"sequence": "GPGSPPSDPRSLHFYNPYHPNSYIRAMLAVSNVVQEYDSDGMFPVYGFGAVAPFTNGTSHFFPLSGNPSNAYLNGMQAVVDTYAGLLPMLQFSGPTNFAPTIRTITDGARRLRGVYTILLILTDGTITDMQDTIDAIVAADDAPLSIVIIGIGRADFSAMVQLDGDGGVLRDRSNRPARRDLVQFVSFSEFEGKNPARLAAAVLLEIPKQVEVWGRIVHATPGHF", "soluble on expression in E. coli": "not soluble"},
      {"sequence": "GPHMPEQYRYTLPVKAGEQRLLGELTGAACATLVAEIAERHAGPVVLIAPDMQNALRLHDEISQFTDQMVMNLADWETLPYDSFSPHQDIISSRLSTLYQLPTMQRGVLIVPVNTLMQRVCPHSFLHGHALVMKKGQRLSRDALRTQLDSAGYRHVDQVMEHGEYATRGALLDLFPMGSELPYRLDFFDDEIDSLRVFDVDSQRTLEEVEAINLLPAHEFPTDKAAIELFRSQWRDTFEVKRDPEHIYQQVSKGTLPAGIEYWQPLFFSEPLPPLFSYFPANTLLVNTGDLETSAERFQADTLARFENRGVDPMRPLLPPQSLWLRVDELFSELKNWPRVQLKTEHLPTKAANANLGFQKLPDLAVQAQQKAPLDALRKFLETFDGPVVFSVESEGRREALGELLARIKIAPQRIMRLDEASDRGRYLMIGAAEHGFVDTVRNLALICESDLLGERVARRRQDSRRTINPDTLIRNLAELHIGQPVVHLEHGVGRYAGMTTLEAGGITGEYLMLTYANDAKLYVPVSSLHLISRYAGGAEENAPLHKLGGDAWSRARQKAAEKVRDVAAELLDIYAQRAAKEGFAFKHDREQYQLFCDSFPFETTPDQAQAINAVLSDMCQPLAMDRLVCGDVGFGKTEVAMRAAFLAVDNHKQVAVLVPTTLLAQQHYDNFRDRFANWPVRIEMISRFRSAKEQTQILAEVAEGKIDILIGTHKLLQSDVKFKDLGLLIVDEEHRFGVRHKERIKAMRANVDILTLTATPIPRTLNMAMSGMRDLSIIATPPARRLAVKTFVREYDSMVVREAILREILRGGQVYYLYNDVENIQKAAERLAELVPEARIAIGHGQMRERELERVMNDFHHQRFNVLVCTTIIETGIDIPTANTIIIERADHFGLAQLHQLRGRVGRSHHQAYAWLLTPHPKAMTTDAQKRLEAIASLEDLGAGFALATHDLEIRGAGELLGEEQSGSMETIGFSLYMELLENAVDALKAGREPSLEDLTSQQTEVELRMPSLLPDDFIPDVNTRLSFYKRIASAKTENELEEIKVELIDRFGLLPDPARTLLDIARLRQQAQKLGIRKLEGNEKGGVIEFAEKNHVNPAWLIGLLQKQPQHYRLDGPTRLKFIQDLSERKTRIEWVRQFMRELEENAIA", "soluble on expression in E. coli": "soluble"},
      {"sequence": "GPLGSALEIAEQLTLLDHLVFKSIPYEEFFGQGWMKAEKYERTPYIMKTTKHFNHVSNFIASEIIRNEDISARASAIEKWVAVADICRCLHNYNAVLEITSSINRSAIFRLKKTWLKVSKQTKSLLDKLQKLVSSDGRFKNLRESLRNCDPPCVPYLGMYLTDLVFIEEGTPNYTEDGLVNFSKMRMISHIIREIRQFQQTTYKIDPQPKVIQYLLDESFMLDEESLYESSLLIEPKLPT", "soluble on expression in E. coli": "soluble"},
      {"sequence": "GPLGSKAPTVFSQNEASLLNQLKNIANREDYVVTWWDYGYPVRYYSDVKTLVDGGKHLGKDNFFPSFALSKDEQAAANMARLSVEYTEKSFYAPQNDILKSDILQAMMKDYNQSNVDLFLASLSKPDFKIDTPKTRDIYLYMPARMSLIFSTVASFSFINLDTGVLDKPFTFSTAYPLDVKNGEIYLSNGVVLSDDFRSFKIGDNVVSVNSIVEINSIKQGEYKITPIDDKAQFYIFYLKDSAIPYAQFILMDKTMFNSAYVQMFFLGNYDKNLFDLVINSRDAKVFKLKI", "soluble on expression in E. coli": "soluble"},
      {"sequence": "GQDRSEATLIKRFKGEGVRYKAKLIGIDEVSAARGDKLCQDSMMKLKGVVAGARSKGEHKQKIFLTISFGGIKIFDEKTGALQHHHAVHEISYIAKDITDHRAFGYVCGKEGNHRFVAIKTAQAAEPVILDLRDLFQLIYELKQREELEKKA", "soluble on expression in E. coli": "soluble"},
      {"sequence": "GRSDTYDVLANRIENAVEQHRTEQRFWNALSWYQRLVEQELAGVCIIQDGTFVYVNQKLADIFSYDQSELIDESPALLTAEGDGDRLPESLRAADSDELDTFHSKFEGRQANGETRTIEVSGGSIEYDGEPAWIGVLRD", "soluble on expression in E. coli": "not soluble"},
      {"sequence": "GSARQQEIDMKRQQRFFRIPFIRPADQYKDPQNKKKGWWYAHFDGPWIARQMELHPDKPPILLVAGKDDMEMCELNLEETGLTRKRGAEILPRQFEEIWERCGGIQYLQSAIESRQARPTYATAMLQNLLKGSSGGSLVPR", "soluble on expression in E. coli": "soluble"},
      {"sequence": "GSDARSRGRVPGYASSSLYRESGIISARQLALLQRMLPRLRLEQLFRCEWLQQRLARGLALGREEVRQILLCAAQDDDGWCSELGDRVNLAVPQSMIDWVLLPVYGWWESLLDQAIPGWRLSLVELETQSRQLRVKSEFWSRVAELEPEQAREELARVAKCQARTQEQVAELAGKLETASALAKSAWPNWQRGMATLLASGGLAGFEPIPEVLECLWQPLCRLDDDVGAADAVQAWLHERNLCQAQDHFYWQS", "soluble on expression in E. coli": "not soluble"},
      {"sequence": "GSELKDYYAIMGVKPTDDLKTIKTAYRRLARKYHPDVSKEPDAEARFKEVAEAWEVLSDEQRRAEYDQMWQHR", "soluble on expression in E. coli": "soluble"},
      {"sequence": "GSFTMPGLVDSNPAPPESQEKKPLKPCCACPETKKARDACIIEKGEEHCGHLIEAHKECMRALGFKI", "soluble on expression in E. coli": "soluble"},
      {"sequence": "GSGIIEFHVIGNSLTPKANRRVLLWLVGLQNVFSHQLPRMPKEYIARLVFDPKHKTLALIKDGRVIGGICFRMFPTQGFTEIVFCAVTSNEQVKGYGTHLMNHLKEYHIKHNILYFLTYADEYAIGYFKKQGFSKDIKVPKSRYLGYIKDYEGATLMECELNPRIPYT", "soluble on expression in E. coli": "soluble"},
      {"sequence": "GSHGRSRFVKKDGHCNVQFINVGEKRNETLVFSHNAVIAMRDGKLCLMWRVGNLQKSHLVEAHVRAQLLKSRITSEGEYIPLDQIDINVGFDSGIDRIFLVSPITIVHEIDEDSPLYDLSKQDIDNADFEIVVILEGMVEATAMTKQCRSSYLANEILWGHRYEPVLFEEKHYYKVDYSRFHKTYEVPNTPLCSARDLAEKKYILSNA", "soluble on expression in E. coli": "soluble"},
      {"sequence": "GSHMASMTGGQQMGRGSMLPRLICINDYEQHAKSVLPKSIYDYYRSGANDEETLADNIAAFSRWKLYPRMLRNVAETDLSTSVLGQRVSMPICVGATAMQRMAHVDGELATVRACQSLGTGMMLSSWATSSIEEVAEAGPEALRWLQLYIYKDREVTKKLVRQAEKMGYKAIFVTVDTPYLGNRLDDVRNRFKLPPQLRMKNFETSTLSFSPEENFGDDSGLAAYVAKAIDPSISWEDIKWLRRLTSLPIVAKGILRGDDAREAVKHGLNGILVSNHGARQLDGVPATIDVLPEIVEAVEGKVEVFLDGGVRKGTDVLKALALGAKAVFVGRPIVWGLAFQGEKGVQDVLEILKEEFRLAMALSGCQNVKVIDKTLVRKNPLAVSKI", "soluble on expression in E. coli": "soluble"},
      {"sequence": "GSHMASMTGGQQMGRGSMTQDEMKKAAGWAALKYVEKGSIVGVGTGSTVNHFIDALGTMSEEIKGAVSSSVASTEKLEALGIKIFDCNEVASLDIYVDGADEINADREMIKGGGAALTREKIVAAIADKFICIVDGTKAVDVLGTFPLPVEVIPMARSYVARQLVKLGGDPCYREGVITDNGNVILDVYGMKITNPKQLEDQINAIPGVVTVGLFAHRGADVVITGTPEGAKIEE", "soluble on expression in E. coli": "soluble"},
      {"sequence": "GSHMDTSLAEEVQQTMATLAPNRFFFMSPYRSFTTSGCFARFDEPAVNGDSPDSPFQQKLAALFADAKAQGIKNPVMVGAIPFDPRQPSSLYIPESWQSFSRQEKQASARRFTRSQSLNVVERQAIPEQTTFEQMVARAAALTATPQVDKVVLSRLIDITTDAAIDSGVLLERLIAQNPVSYNFHVPLADGGVLLGASPELLLRKDGERFSSIPLAGSARRQPDEVLDREAGNRLLASEKDRHEHELVTQAMKEVLRERSSELHVPSSPQLITTPTLWHLATPFEGKANSQENALTLACLLHPTPALSGFPHQAATQVIAELEPFDRELFGGIVGWCDSEGNGEWVVTIRCAKLRENQVRLFAGAGIVPASSPLGEWRETGVKLSTMLNVFGLH", "soluble on expression in E. coli": "soluble"},
      {"sequence": "GSHMEEAKGPVKHVLLASFKDGVSPEKIEELIKGYANLVNLIEPMKAFHWGKDVSIENLHQGYTHIFESTFESKEAVAEYIAHPAHVEFATIFLGSLDKVLVIDYKPTSVSL", "soluble on expression in E. coli": "soluble"},
      {"sequence": "GSHMFYAVRRGRKTGVFLTWNECRAQVDRFPAARFKKFATEDEAWAFVRKSAS", "soluble on expression in E. coli": "soluble"},
      {"sequence": "GSHMGFLSGKRILVTGVASKLSIAYGIAQAMHREGAELAFTYQNDKLKGRVEEFAAQLGSDIVLQCDVAEDASIDTMFAELGKVWPKFDGFVHSIGFAPGDQLDGDYVNAVTREGFKIAHDISSYSFVAMAKACRSMLNPGSALLTLSYLGAERAIPNYNVMGLAKASLEANVRYMANAMGPEGVRVNAISAGPIRTLAASGIKDFRKMLAHCEAVTPIRRTVTIEDVGNSAAFLCSDLSAGISGEVVHVDGGFSIAAMNELELK", "soluble on expression in E. coli": "soluble"}
    ]}
  ]
}
